Key:
bovine serum albumin = target: T1, bovine serum albumin (bovine, UniProt P02769 25-607); test: ELISA, antigen coated at 10 ug/ml, antibody supernatant, compared with anti-digoxin control
T1 construct: also called BSA
Procedure: (§1) Then goat anti mouse antibody conjugated with HRP (1:5000, Sc-2005, Santa Cruz) was then added. The plate was washed after incubation for 1 h. TMB was added to the wells and absorbance at 370nm was recorded.

mouse plasminogen = target: T2, mouse plasminogen (mouse, UniProt P20918 20-812); test: as above
T2 construct: also called mouse (m) Pg
Procedure: as §1

human tPA = human tPA (human, UniProt P00750 36-562); test: as above
Procedure: as §1

human plasminogen = target: T3, human plasminogen (human, UniProt P00747 20-810); test: saturation binding ELISA, human plasminogen coated at 2 ug/ml, one-site hyperbola fit
T3 construct: also called h Pg

human plasmin = human plasmin (human, UniProt P00747 97-810, limits assumed); test: cell-based or functional assay
Chain of human plasmin (P00747 97-810 limits assumed): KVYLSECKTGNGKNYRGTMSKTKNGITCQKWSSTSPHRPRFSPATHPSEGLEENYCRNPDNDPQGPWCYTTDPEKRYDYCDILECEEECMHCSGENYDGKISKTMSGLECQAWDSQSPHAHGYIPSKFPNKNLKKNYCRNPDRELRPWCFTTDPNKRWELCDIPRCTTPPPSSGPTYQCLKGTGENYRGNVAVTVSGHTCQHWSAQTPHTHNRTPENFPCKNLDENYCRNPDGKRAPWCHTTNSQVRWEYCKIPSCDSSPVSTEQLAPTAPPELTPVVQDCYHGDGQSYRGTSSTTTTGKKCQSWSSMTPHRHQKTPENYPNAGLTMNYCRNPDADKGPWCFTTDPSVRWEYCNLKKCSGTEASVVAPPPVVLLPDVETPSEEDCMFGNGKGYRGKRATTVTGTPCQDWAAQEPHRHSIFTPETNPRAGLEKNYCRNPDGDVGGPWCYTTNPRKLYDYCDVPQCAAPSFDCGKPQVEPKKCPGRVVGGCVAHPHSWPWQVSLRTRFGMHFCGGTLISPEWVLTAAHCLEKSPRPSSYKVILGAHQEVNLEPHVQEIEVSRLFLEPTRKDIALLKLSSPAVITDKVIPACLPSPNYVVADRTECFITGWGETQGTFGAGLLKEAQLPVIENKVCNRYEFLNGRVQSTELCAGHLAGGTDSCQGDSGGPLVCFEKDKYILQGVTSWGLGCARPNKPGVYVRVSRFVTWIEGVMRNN

T2 sequence (P20918 20-812 limits assumed): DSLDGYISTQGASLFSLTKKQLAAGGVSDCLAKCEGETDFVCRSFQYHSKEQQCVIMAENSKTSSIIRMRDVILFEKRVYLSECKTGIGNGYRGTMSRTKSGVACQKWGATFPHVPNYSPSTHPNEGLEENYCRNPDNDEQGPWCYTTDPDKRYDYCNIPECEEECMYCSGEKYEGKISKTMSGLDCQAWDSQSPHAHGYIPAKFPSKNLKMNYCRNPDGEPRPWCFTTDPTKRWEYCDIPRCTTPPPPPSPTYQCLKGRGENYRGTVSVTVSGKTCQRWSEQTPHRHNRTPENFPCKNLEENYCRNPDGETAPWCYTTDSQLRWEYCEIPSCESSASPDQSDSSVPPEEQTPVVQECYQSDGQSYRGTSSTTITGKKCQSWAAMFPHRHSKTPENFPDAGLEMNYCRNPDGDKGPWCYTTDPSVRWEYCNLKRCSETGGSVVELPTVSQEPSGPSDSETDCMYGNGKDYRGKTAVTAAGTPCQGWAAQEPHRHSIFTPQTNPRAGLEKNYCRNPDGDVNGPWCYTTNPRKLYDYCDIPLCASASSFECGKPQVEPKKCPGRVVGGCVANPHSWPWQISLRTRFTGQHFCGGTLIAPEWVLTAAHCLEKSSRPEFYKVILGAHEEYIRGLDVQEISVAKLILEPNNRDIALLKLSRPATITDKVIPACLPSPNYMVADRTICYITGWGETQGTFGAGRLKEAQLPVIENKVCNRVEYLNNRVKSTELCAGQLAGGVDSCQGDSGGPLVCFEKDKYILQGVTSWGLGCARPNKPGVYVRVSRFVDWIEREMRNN
T3 sequence (P00747 20-810 limits assumed): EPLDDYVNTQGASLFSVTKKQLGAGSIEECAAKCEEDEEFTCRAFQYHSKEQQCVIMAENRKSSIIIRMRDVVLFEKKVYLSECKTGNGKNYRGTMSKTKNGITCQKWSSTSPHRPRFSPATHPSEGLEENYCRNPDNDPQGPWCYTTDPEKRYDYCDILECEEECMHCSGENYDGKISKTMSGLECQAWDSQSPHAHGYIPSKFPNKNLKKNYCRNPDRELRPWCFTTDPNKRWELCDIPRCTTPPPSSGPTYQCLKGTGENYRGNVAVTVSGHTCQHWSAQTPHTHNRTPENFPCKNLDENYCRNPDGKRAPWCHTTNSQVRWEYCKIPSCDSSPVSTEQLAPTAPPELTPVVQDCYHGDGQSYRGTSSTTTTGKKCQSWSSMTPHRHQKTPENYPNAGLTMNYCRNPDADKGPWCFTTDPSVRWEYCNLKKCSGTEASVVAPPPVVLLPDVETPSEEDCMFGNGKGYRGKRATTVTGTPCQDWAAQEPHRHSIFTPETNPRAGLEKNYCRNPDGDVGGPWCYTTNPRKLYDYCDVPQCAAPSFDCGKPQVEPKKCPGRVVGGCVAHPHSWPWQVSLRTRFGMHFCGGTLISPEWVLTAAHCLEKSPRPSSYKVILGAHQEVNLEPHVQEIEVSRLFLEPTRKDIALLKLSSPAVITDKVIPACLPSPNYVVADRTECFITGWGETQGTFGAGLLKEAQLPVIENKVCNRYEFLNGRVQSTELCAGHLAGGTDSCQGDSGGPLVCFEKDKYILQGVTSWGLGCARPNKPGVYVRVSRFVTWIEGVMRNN
Chain of human tPA (P00750 36-562 limits assumed): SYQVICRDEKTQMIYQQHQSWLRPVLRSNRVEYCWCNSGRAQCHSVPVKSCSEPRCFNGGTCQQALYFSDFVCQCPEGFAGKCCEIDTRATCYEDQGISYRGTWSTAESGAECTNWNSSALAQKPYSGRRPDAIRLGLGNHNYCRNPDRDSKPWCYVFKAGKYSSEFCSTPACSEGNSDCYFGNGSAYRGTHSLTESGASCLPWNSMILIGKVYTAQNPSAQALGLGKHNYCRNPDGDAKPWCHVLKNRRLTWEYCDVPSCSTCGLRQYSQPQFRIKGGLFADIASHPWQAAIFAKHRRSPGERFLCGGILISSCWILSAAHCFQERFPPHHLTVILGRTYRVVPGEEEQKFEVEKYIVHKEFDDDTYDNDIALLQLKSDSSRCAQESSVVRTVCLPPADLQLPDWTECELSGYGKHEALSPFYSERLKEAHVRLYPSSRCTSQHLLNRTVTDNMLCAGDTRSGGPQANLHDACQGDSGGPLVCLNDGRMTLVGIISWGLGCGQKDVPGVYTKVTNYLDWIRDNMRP
T1 sequence (P02769 25-607 limits assumed): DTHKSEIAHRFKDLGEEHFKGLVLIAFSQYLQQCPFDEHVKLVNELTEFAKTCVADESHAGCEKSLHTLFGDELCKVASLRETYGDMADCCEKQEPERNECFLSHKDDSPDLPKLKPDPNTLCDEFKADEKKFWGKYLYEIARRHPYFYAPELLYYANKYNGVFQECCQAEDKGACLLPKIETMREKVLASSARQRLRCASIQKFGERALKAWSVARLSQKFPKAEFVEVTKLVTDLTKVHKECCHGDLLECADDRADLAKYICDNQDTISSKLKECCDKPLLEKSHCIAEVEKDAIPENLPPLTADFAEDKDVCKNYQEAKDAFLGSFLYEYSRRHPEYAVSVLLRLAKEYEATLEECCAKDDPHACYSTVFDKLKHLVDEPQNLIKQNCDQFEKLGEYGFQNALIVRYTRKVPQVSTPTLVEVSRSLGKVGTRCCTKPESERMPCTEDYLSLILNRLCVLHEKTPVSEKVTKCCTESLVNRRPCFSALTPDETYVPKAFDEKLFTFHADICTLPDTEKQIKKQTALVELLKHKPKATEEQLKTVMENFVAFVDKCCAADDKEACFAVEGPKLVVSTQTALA

B1: monoclonal antibody plasmin inhibitor (Pi) (antibody, mouse IgG1, kappa, V domains shown)
VH: EVKLLESGGGLVQPGGSLKLSCAASGFDFSRYWMSWVRQAPGKGLEWIGEINPDSSTINYTPSLKDKFIISRDNAKNSLYLQMSKVRSEDTALYYCASYCGYSYDALDCWGQGTSVTVSS
VL: DIQMTQSPSSLSASLGGKVSITCKASQDINKYISWYQHKPGKGPRLLIHYTSTLQPGIPSRFSGSGSGRDYSFSISNLEPEDIATYYCLQYDNLYTFGGGTKLEIKR
notes: Mouse hybridoma IgG purified from supernatant; also called Pi IgG; Pi MAb38
B1: no binding (bovine serum albumin); no binding (mouse plasminogen); no binding (human tPA). The Kd (human plasminogen) was 3.4 nM and the “plasmin-mediated fibrinolysis of human fibrin clots (125I-fibrin release, tPA)” value (human plasmin) was ~5000 fold more potent than EACA.

From patent US20190085097A1 (published 2019)
